Substrate in data set [1]: PET
Nature of the data set: Proxy for plastic degradation [Released monomer concentration (HPLC/LC-MS) (TPA)].

Substrate in data set [2]: PET
Nature of the data set: Proxy for plastic degradation [Released monomer concentration (HPLC/LC-MS) (MHET)].

Substrate in another data set: BHET
Briefly: Proxy for plastic degradation [Released monomer concentration (HPLC/LC-MS) (MHET+TPA)].

[3] abbreviates: pH 10.5, part of the chain shown.

13 proteins from the PETadex activity labels (doi:10.1002/cbic.201800097) can be followed below.

B1: unnamed (protein)
chain: NPYARGPNPTAASLEASAGPFTVRSFTVSRPSGYGAGTVYYPTNAGGTVGAIAIVPGYTARQSSIKWWGPRLASHGFVVITIDTNSTLDQPSSRSSQQMAALRQVASLNGTSSSPIYGKVDTARMGVMGWSMGGGGSLISAANNPSLKAAAPQAPWDSSTNFSSVTVPTLIFACENDSIAPVNSSALPIYDSMSRNAKQFLEINGGSHSCAASGNSNQALIGKKGVAWMKRFMDNDTRYSTFACENPNSTRVSDFRTANCS
Regarding B1, the “Proxy for plastic degradation” value worked out at 0 nM with PET [1] (pH 9) and 1.5 nM in the data set with PET [2] (pH 9).

B2: unnamed (protein)
chain: NPYARGPNPTAASLEASAGPFTVRSFTVSRPSGYGAGTVYYPTNAGGTVGAIAIVPGFTARQSSIKWWGPRLASHGFVVITIDTNSTLDQPSSRSSQQMAALRQVASLNGTSSSPIYGKVDTARMGVMGWSMGGGGSLISAANNPSLKAAAPQAPWDSSTNFSSVTVPTLIFACENDSIAPVNSSALPIYDSMSRNAKQFLEINGGSHSCANSGNSNQALIGKKGVAWMKRFMDNDTRYSTFACENPNSTRVSDFRTANCS
As for B2, the “Proxy for plastic degradation” value with PET [1] (pH 9) worked out at 0 nM; with PET [2] (pH 9), 0 nM; in the data set with BHET (pH 7.5), 0.54 µM.

B3: unnamed (protein)
chain: NPYARGPNPTAASLEASAGPFTVRSFTVSRPSGYGAGTVYYPTNAGGTVGAIAIVPGYTARQSSIKWWGPRLASHGFVVITIDTNSTLDQPSSRSSQQMAALRQVASLNGTSSSPIYGKVDTARMGVMGWAMGGGGSLISAANNPSLKAAAPQAPWDSSTNFSSVTVPTLIFACENASIAPVNSSALPIYDSMSRNAKQFLEINGGSASCANSGNSNQALIGKKGVAWMKRFMDNDTRYSTFACENPNSTRVSDFRTANCS
Regarding B3, the “Proxy for plastic degradation” value with PET [1] (pH 9) and in the data set with PET [2] (pH 9) was 0 nM each time.

B4: unnamed (protein)
chain: NPYARGPNPTAASLEASAGPFTVRSFTVSRPSGYGAGTVYYPTNAGGTVGAIAIVPGYTARQSSIKWWGPRLASHGFVVITIDTNSTLDQPSSRSSQQMAALRQVASLNGTSSSPIYGKVDTARMGVMGWSMGGGGSLISAANNPSLKAAAPQAPWDSSTNFSSVTVPTLIFAAENDSIAPVNSSALPIYDSMSRNAKQFLEINGGSHSAANSGNSNQALIGKKGVAWMKRFMDNDTRYSTFACENPNSTRVSDFRTANCS
As to B4, the “Proxy for plastic degradation” value with PET [1] (pH 9, part of the chain shown) is 0 nM; in the data set with PET [2] (pH 9, part of the chain shown), 0.5 nM.

B5: unnamed (protein)
chain: NPYARGPNPTAASLEASAGPFTVRSFTVSRPSGYGAGTVYYPTNAGGTVGAIAIVPGYTARQSSIKWLGPRLASHGFVVITIDTNSTLDQPSSRSSQQMAALRQVASLNGTSSSPIYGKVDTARMGVMGWSMGGGGSLISAANNPSLKAAAPQAPWDSSTNFSSVTVPTLIFACENDSIAPVNSSALPIYDSMSRNAKQFLEINGGSHSCANSGNSNQALIGKKGVAWMKRFMDNDTRYSTFACENPNSTRVSDFRTANCS
Turning to B5, the entries for the “Proxy for plastic degradation” value in the data set with PET [1] (pH 9), with PET [2] (pH 9) and in the data set with BHET (pH 7.5) were 0 nM, 0 nM and 0.18 µM, respectively.

B6: unnamed (protein)
chain: NPYARGPNPTAASLEASAGPFTVRSFTVSRPSGYGAGTVYYPTNAGGTVGAIAIVPGYTARQSSIKWWGPRLASHGFVVITIDTNSTLDQPSSRSSQQMAALRQVASLNGTSSSPIYGKVDTARMGVMGWSMGGGGSLISAANNPSLKAAAPQAPWDSSTNFSSVTVPTLIFACENDSIAPVNSSALPIYDSMSRNAKQFLEINGGSHSAANSGNSNQALIGKKGVAWMKRFMDNDTRYSTFACENPNSTRVSDFRTANCS
As for B6, the “Proxy for plastic degradation” value is 0 nM in the data set with PET [1] (pH 9), 0 nM with PET [2] (pH 9) and 0.22 µM in the data set with BHET (pH 7.5).

B7: unnamed (protein)
chain: NPYARGPNPTAASLEASAGPFTVRSFTVSRPSGYGAGTVYYPTNAGGTVGAIAIVPGYTARQSSIKWWGPRLASHGFVVITIDTNSTLDQPSSRSSQQMAALRQVASLNGTSSSPIYGKVDTARMGVMGWSMGGGGSLISAANNPSLKAAAPQAPADSSTNFSSVTVPTLIFACENDSIAPVNSSALPIYDSMSRNAKQFLEINGGSHSCANSGNSNQALIGKKGVAWMKRFMDNDTRYSTFACENPNSTRVSDFRTANCS
As to B7, the “Proxy for plastic degradation” value in the data set with PET [1] (pH 9) is 2 nM; with PET [2] (pH 9) it was 1.5 nM.

B8: unnamed (protein)
chain: NPYARGPNPTAASLEASAGPFTVRSFTVSRPSGYGAGTVYYPTNAGGTVGAIAIVPGATARQSSIKWWGPRLASHGFVVITIDTNSTLDQPSSRSSQQMAALRQVASLNGTSSSPIYGKVDTARMGVMGWSMGGGGSLISAANNPSLKAAAPQAPWDSSTNFSSVTVPTLIFACENDSIAPVNSSALPIYDSMSRNAKQFLEINGGSHSCANSGNSNQALIGKKGVAWMKRFMDNDTRYSTFACENPNSTRVSDFRTANCS
As for B8, the “Proxy for plastic degradation” value with PET [1] (pH 9) stood at 21 nM; with BHET (pH 7.5), 1.09 µM.

B9: unnamed (protein)
chain: NPYARGPNPTAASLEASAGPFTVRSFTVSRPSGYGAGTVYYPTNAGGTVGAIAIVPGYTARQSSIKWWGPRLASHGFVVITIDTNSTLDAPSSRSSQQMAALRQVASLNGTSSSPIYGKVDTARMGVMGWSMGGGGSLISAANNPSLKAAAPQAPWDSSTNFSSVTVPTLIFACENDSIAPVNSSALPIYDSMSRNAKQFLEINGGSHSCANSGNSNQALIGKKGVAWMKRFMDNDTRYSTFACENPNSTRVSDFRTANCS
On to B9, for which the “Proxy for plastic degradation” value in the data set with PET [1] (pH 9) stood at 6 nM; with BHET (pH 7.5), 0.94 µM.

B10: unnamed (protein)
chain: NPYARGPNPTAASLEASAGPFTVRSFTVSRPSGYGAGTVYYPTNAGGTVGAIAIVPGYTARQSSIKWWGPRLASHGFVVITIDTNSTLDQPSSRSSQQMAALRQVASLNGTSSSPIYGKVDTARMGVMGWSMGGGGSLISAANNPSLKAAAPQAPWDSSTNFSSVTVPTLIFACENDSIIPVNSSALPIYDSMSRNAKQFLEINGGSHSCANSGNSNQALIGKKGVAWMKRFMDNDTRYSTFACENPNSTRVSDFRTANCS
In the case of B10, the “Proxy for plastic degradation” value in the data set with PET [1] (pH 9) is 11 nM; with PET [2] (pH 9), 13 nM.

B11: unnamed (protein)
chain: MNFPRASRLMQAAVLGGLMAVSAAATAQTNPYARGPNPTAASLEASAGPFTVRSFTVSRPSGYGAGTVYYPTNAGGTVGAIAIVPGYTARQSSIKWWGPRLASHGFVVITIDTNSTLDQPSSRSSQQMAALRQVASLNGTSSSPIYGKVDTARMGVMGWSMGGGGSLISAANNPSLKAAAPQAPWDSSTNFSSVTVPTLIFACENDSIAPVNSSALPIYDSMSRNAKQFLEINGGSHSCANSGNSNQALIGKKGVAWMKRFMDNDTRYSTFACENPNSTRVSDFRTANCS
On to B11, for which the “Proxy for plastic degradation” value with PET [1] (pH 8, part of the chain shown) came out at 0 nM; with PET [1] (pH 10, part of the chain shown), 0 nM; with PET [1] (setting [3]) it was 0 nM; with PET [2] (25 °C, part of the chain shown) it was 1300 nM; with PET [2] (30 °C, part of the chain shown), 5300 nM; with PET [2] (35 °C, part of the chain shown) it was 2200 nM. The “Proxy for plastic degradation” value worked out at 0 nM with PET [2] (40 °C, part of the chain shown); 10.5 nM with PET [2] (pH 9, 25 °C, part of the chain shown); 12.9 nM with PET [2] (pH 9, 30 °C, part of the chain shown); 8 nM with PET [2] (pH 9, 35 °C, part of the chain shown); 5.5 nM with PET [2] (pH 9, 40 °C, part of the chain shown); 12700 nM with PET [2] (pH 9, part of the chain shown). For the same protein, the “Proxy for plastic degradation” value with PET [2] (setting [3]) was found to be 0 nM; with BHET (pH 5, part of the chain shown) it was 0.58 µM; with BHET (pH 5.5, part of the chain shown), 0.9 µM; with BHET (pH 6, part of the chain shown), 1.51 µM; in the data set with BHET (pH 6.5, part of the chain shown), 1.72 µM; with BHET (pH 7, part of the chain shown), 1.72 µM. The “Proxy for plastic degradation” value worked out at 0.95 µM with BHET (pH 7.5, 25 °C, part of the chain shown); 1.75 µM with BHET (pH 7.5, 30 °C, part of the chain shown); 1.04 µM with BHET (pH 7.5, 35 °C, part of the chain shown); 0.65 µM in the data set with BHET (pH 7.5, 40 °C, part of the chain shown); 0.3 µM in the data set with BHET (pH 7.5, 45 °C, part of the chain shown); 0.17 µM with BHET (pH 7.5, 50 °C, part of the chain shown). Besides, the “Proxy for plastic degradation” value with BHET (pH 7.5, 55 °C, part of the chain shown) was 0.14 µM; in the data set with BHET (pH 7.5, 60 °C, part of the chain shown), 0.16 µM; in the data set with BHET (pH 8, part of the chain shown) it was 1.65 µM; with BHET (pH 8.5, part of the chain shown) it was 1.47 µM; with BHET (pH 9, part of the chain shown), 1.1 µM; in the data set with BHET (pH 9.5, part of the chain shown), 0.47 µM.

B12: unnamed (protein)
chain: MNFPRASRLMQAAVLGGLMAVSAAATAQTNPYARGPNPTAASLEASAGPFTVRSFTVSRPSGYGAGTVYYPTNAGGTVGAIAIVPGYTARQSSIKWWGPRLASHGFVVITIDTNSTLDQPSSRSSQQMAALRQVASLNGTSSSPIYGKVDTARMGVMGWSMGGGGSLISAANNPSLKAAAPQAPWDSSTNFSSVTVPTLIFACENDSIAPVASSALPIYDSMSRNAKQFLEINGGSHSCANSGNSNQALIGKKGVAWMKRFMDNDTRYSTFACENPNSTRVSDFRTANCS
With B12, the “Proxy for plastic degradation” value amounted to 0 nM with PET [1] (pH 9), 2 nM in the data set with PET [2] (pH 9) and 0.42 µM with BHET (pH 7.5).

B13: unnamed (protein)
chain: MNFPRASRLMQAAVLGGLMAVSAAATAQTNPYARGPNPTAASLEASAGPFTVRSFTVSRPSGYGAGTVYYPTNAGGTVGAIAIVPGYTARQSSIKWWGPRLASHGFVVITIDTNSTLDQPSSRSSQQMAALRQVASLNGTSSSPIYGKVDTARMGVMGWSMGGGGSLISAANNPSLKAAIPQAPWDSSTNFSSVTVPTLIFACENDSIAPVNSSALPIYDSMSRNAKQFLEINGGSHSCANSGNSNQALIGKKGVAWMKRFMDNDTRYSTFACENPNSTRVSDFRTANCS
In the case of B13, the results for the “Proxy for plastic degradation” value in the data set with PET [1] (pH 9), with PET [2] (pH 9) and in the data set with BHET (pH 7.5) were 10.5 nM, 13.4 nM and 0.31 µM, respectively.
